Tests used:
[1] = molecular target: Zika virus (ZIKV) soluble E ectodomain (sE) (Zika virus); experiment: SEC-MALS
[2] = molecular target: Zika virus (ZIKV) soluble E ectodomain (sE) (Zika virus); experiment: SEC-MALS; pH 8.0; isolated proteins sampled individually; Superdex 200

Q: How did the stoichiometry N [1] turn out when “Zika virus (ZIKV) soluble E ectodomain (sE) (domain or fragment)” was run?
A: 2

Q: What about the stoichiometry N [2] of the same substance?
A: 2
